Measured values reported in patent US20200131230A1 (published 2020).
Like-named read-outs stand apart in the source and are kept apart here. Positions of bridges follow the written chain, without caps; N, C: chain ends. Non-standard residues stand in square brackets, D forms with d. 2Nal = N[C@@H](Cc1ccc2ccccc2c1)C(=O)O; Pen = CC(C)(S)[C@H](N)C(=O)O; Phg = N[C@H](C(=O)O)c1ccccc1; Nle = CCCC[C@H](N)C(=O)O; HCt = not defined here

B1: Compound 100 (peptide)
peptide: {CH2CO}-[2Nal]RSGHNW[Nle]VWVC-NH2
modifications: thioether N-12
SMILES: CCCC[C@@H]1NC(=O)[C@H](Cc2c[nH]c3ccccc23)NC(=O)[C@H](CC(N)=O)NC(=O)[C@H](Cc2c[nH]cn2)NC(=O)CNC(=O)[C@H](CO)NC(=O)[C@H](CCCNC(=N)N)NC(=O)[C@H](Cc2ccc3ccccc3c2)NC(=O)CSC[C@@H](C(N)=O)NC(=O)[C@H](C(C)C)NC(=O)[C@H](Cc2c[nH]c3ccccc23)NC(=O)[C@H](C(C)C)NC1=O
B2: Compound 103 (peptide)
peptide: {CH2CO}-[2Nal]RSGKNW[Nle][Phg]WVC-NH2
modifications: thioether N-12
SMILES: CCCC[C@@H]1NC(=O)[C@H](Cc2c[nH]c3ccccc23)NC(=O)[C@H](CC(N)=O)NC(=O)[C@H](CCCCN)NC(=O)CNC(=O)[C@H](CO)NC(=O)[C@H](CCCNC(=N)N)NC(=O)[C@H](Cc2ccc3ccccc3c2)NC(=O)CSC[C@@H](C(N)=O)NC(=O)[C@H](C(C)C)NC(=O)[C@H](Cc2c[nH]c3ccccc23)NC(=O)[C@H](c2ccccc2)NC1=O
B3: Compound 79 (peptide)
peptide: {CH2CO}-[2Nal]ISGRDW[Nle]KWV[Pen]-NH2
modifications: thioether N-12
SMILES: CCCC[C@@H]1NC(=O)[C@H](Cc2c[nH]c3ccccc23)NC(=O)[C@H](CC(=O)O)NC(=O)[C@H](CCCNC(=N)N)NC(=O)CNC(=O)[C@H](CO)NC(=O)[C@H]([C@@H](C)CC)NC(=O)[C@H](Cc2ccc3ccccc3c2)NC(=O)CSC(C)(C)[C@@H](C(N)=O)NC(=O)[C@H](C(C)C)NC(=O)[C@H](Cc2c[nH]c3ccccc23)NC(=O)[C@H](CCCCN)NC1=O
B4: Compound 82 (peptide)
peptide: {CH2CO}-L[2Nal]ISGRDW[Nle]KWVC-NH2
modifications: thioether N-13
SMILES: CCCC[C@@H]1NC(=O)[C@H](Cc2c[nH]c3ccccc23)NC(=O)[C@H](CC(=O)O)NC(=O)[C@H](CCCNC(=N)N)NC(=O)CNC(=O)[C@H](CO)NC(=O)[C@H]([C@@H](C)CC)NC(=O)[C@H](Cc2ccc3ccccc3c2)NC(=O)[C@H](CC(C)C)NC(=O)CSC[C@@H](C(N)=O)NC(=O)[C@H](C(C)C)NC(=O)[C@H](Cc2c[nH]c3ccccc23)NC(=O)[C@H](CCCCN)NC1=O
B5: Compound 85 (peptide)
peptide: {CH2CO}-T[2Nal]ISGRDW[Nle]KWVC-NH2
modifications: thioether N-13
SMILES: CCCC[C@@H]1NC(=O)[C@H](Cc2c[nH]c3ccccc23)NC(=O)[C@H](CC(=O)O)NC(=O)[C@H](CCCNC(=N)N)NC(=O)CNC(=O)[C@H](CO)NC(=O)[C@H]([C@@H](C)CC)NC(=O)[C@H](Cc2ccc3ccccc3c2)NC(=O)[C@H]([C@@H](C)O)NC(=O)CSC[C@@H](C(N)=O)NC(=O)[C@H](C(C)C)NC(=O)[C@H](Cc2c[nH]c3ccccc23)NC(=O)[C@H](CCCCN)NC1=O
B6: Compound 87 (peptide)
peptide: {CH2CO}-F[2Nal]ISGRDW[Nle]KWVC-NH2
modifications: thioether N-13
SMILES: CCCC[C@@H]1NC(=O)[C@H](Cc2c[nH]c3ccccc23)NC(=O)[C@H](CC(=O)O)NC(=O)[C@H](CCCNC(=N)N)NC(=O)CNC(=O)[C@H](CO)NC(=O)[C@H]([C@@H](C)CC)NC(=O)[C@H](Cc2ccc3ccccc3c2)NC(=O)[C@H](Cc2ccccc2)NC(=O)CSC[C@@H](C(N)=O)NC(=O)[C@H](C(C)C)NC(=O)[C@H](Cc2c[nH]c3ccccc23)NC(=O)[C@H](CCCCN)NC1=O
B7: Compound 89 (peptide)
peptide: {CH2CO}-W[2Nal]ISGRDW[Nle]KWVC-NH2
modifications: thioether N-13
SMILES: CCCC[C@@H]1NC(=O)[C@H](Cc2c[nH]c3ccccc23)NC(=O)[C@H](CC(=O)O)NC(=O)[C@H](CCCNC(=N)N)NC(=O)CNC(=O)[C@H](CO)NC(=O)[C@H]([C@@H](C)CC)NC(=O)[C@H](Cc2ccc3ccccc3c2)NC(=O)[C@H](Cc2c[nH]c3ccccc23)NC(=O)CSC[C@@H](C(N)=O)NC(=O)[C@H](C(C)C)NC(=O)[C@H](Cc2c[nH]c3ccccc23)NC(=O)[C@H](CCCCN)NC1=O
B8: Compound 94 (peptide)
peptide: {CH2CO}-F[2Nal]ISGKDW[Nle]RWVC-NH2
modifications: thioether N-13
SMILES: CCCC[C@@H]1NC(=O)[C@H](Cc2c[nH]c3ccccc23)NC(=O)[C@H](CC(=O)O)NC(=O)[C@H](CCCCN)NC(=O)CNC(=O)[C@H](CO)NC(=O)[C@H]([C@@H](C)CC)NC(=O)[C@H](Cc2ccc3ccccc3c2)NC(=O)[C@H](Cc2ccccc2)NC(=O)CSC[C@@H](C(N)=O)NC(=O)[C@H](C(C)C)NC(=O)[C@H](Cc2c[nH]c3ccccc23)NC(=O)[C@H](CCCNC(=N)N)NC1=O
B9: Compound 98 (peptide)
peptide: {CH2CO}-[2Nal]RSGKNWVVWVC-NH2
modifications: thioether N-12
SMILES: CC(C)[C@@H]1NC(=O)[C@H](Cc2c[nH]c3ccccc23)NC(=O)[C@H](C(C)C)NC(=O)[C@H](C(C)C)NC(=O)[C@H](Cc2c[nH]c3ccccc23)NC(=O)[C@H](CC(N)=O)NC(=O)[C@H](CCCCN)NC(=O)CNC(=O)[C@H](CO)NC(=O)[C@H](CCCNC(=N)N)NC(=O)[C@H](Cc2ccc3ccccc3c2)NC(=O)CSC[C@@H](C(N)=O)NC1=O

Assays:
[1] = target: T1, Thrombospondin human platelet (Calbiochem, 605225) (human, UniProt P07996 19-1170); assay: cell-based or functional assay
T1 sequence (P07996 19-1170 limits assumed): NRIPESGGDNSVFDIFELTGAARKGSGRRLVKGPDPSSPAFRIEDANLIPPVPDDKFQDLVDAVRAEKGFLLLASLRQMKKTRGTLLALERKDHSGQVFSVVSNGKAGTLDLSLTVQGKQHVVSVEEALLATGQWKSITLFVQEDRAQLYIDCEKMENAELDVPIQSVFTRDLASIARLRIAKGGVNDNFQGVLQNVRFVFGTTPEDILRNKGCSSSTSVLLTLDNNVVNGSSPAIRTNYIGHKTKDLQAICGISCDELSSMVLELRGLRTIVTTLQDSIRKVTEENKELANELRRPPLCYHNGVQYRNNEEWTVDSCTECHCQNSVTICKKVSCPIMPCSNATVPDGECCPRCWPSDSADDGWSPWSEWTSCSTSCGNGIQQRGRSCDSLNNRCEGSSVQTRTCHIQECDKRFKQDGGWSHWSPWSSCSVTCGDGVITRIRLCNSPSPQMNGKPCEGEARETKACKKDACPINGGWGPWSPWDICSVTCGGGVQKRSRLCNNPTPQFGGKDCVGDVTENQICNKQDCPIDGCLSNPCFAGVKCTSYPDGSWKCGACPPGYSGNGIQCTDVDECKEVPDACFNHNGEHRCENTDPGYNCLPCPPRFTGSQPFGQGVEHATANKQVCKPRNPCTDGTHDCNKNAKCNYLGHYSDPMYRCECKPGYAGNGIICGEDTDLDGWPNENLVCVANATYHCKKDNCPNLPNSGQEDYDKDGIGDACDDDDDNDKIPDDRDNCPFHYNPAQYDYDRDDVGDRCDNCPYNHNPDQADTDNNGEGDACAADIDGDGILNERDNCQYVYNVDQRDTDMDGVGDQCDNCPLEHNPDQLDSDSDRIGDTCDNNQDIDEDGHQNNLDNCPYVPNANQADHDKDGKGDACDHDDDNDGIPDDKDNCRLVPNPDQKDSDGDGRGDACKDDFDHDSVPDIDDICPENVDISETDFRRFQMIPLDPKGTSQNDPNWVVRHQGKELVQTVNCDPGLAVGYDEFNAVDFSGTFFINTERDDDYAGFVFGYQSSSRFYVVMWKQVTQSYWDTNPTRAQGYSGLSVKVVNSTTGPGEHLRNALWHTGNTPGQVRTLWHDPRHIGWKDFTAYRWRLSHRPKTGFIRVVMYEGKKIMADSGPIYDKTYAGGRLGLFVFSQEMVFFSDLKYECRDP

[2] = target: T1, Thrombospondin human platelet …; assay: cell-based or functional assay; remark: listed apart in the source

Cell adhesion IC50 [1] [nM] | Cell adhesion IC50 [2] [nM] | Binder
19.5 |  | B1
12.4 |  | B2
 | 27.9 | {CH2CO}-[2Nal]ISG[3Hyp]NW[Nle]HWVC-NH2 (thioether N-12) [Compound 69]
 | 20.7 | {CH2CO}-[2Nal]ISG[HCt]DW[Nle]KWVC-NH2 (thioether N-12; reading uncertain) [Compound 74]
15 |  | B3
29.9 |  | B4
15.5 |  | B5
15.8 |  | B6
23.8 |  | B7
25.1 |  | B8
3.9 |  | B9
